Measurements as given in PMC6633393 (Journal of cell science, 2019).

Biological target: Histidine-tagged human TEAD4 (amino acids 217–434) (human, UniProt Q15561 217-434)
Assay: native gel or EMSA; TEAD4 incubated with increasing concentrations of VGLL3 peptide before labelled YAP was added; 10 min at room temperature; 10% native gel at 100 V; only labelled YAP is seen
Conditions: both partners purified

Histidine-tagged human TEAD4 (amino acids 217–434), sequence (Q15561 217-434): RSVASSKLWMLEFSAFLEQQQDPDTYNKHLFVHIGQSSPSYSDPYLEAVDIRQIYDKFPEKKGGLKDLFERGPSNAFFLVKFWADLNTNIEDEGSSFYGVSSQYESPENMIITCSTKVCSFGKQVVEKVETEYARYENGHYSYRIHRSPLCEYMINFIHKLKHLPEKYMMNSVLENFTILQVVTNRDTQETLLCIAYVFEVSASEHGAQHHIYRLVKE

- binding result: binds
Binder: SRCVLFTYFQGDIGSVVDEHFSRALGQ (peptide, UniProt A8MV65 86-112, looked up) [Unlabelled human VGLL3 (amino acids 86–112) peptide]
